Measurements: the supplement of paper PMC10567573

B1: SMOC2 (parent)
chain: QKPLCASDGRTFLSRCEFQRAKCK
B2: FOXJ1 (parent)
chain: SAIYKWITDNFCYFRHADPTWQNS

Variants of: B1
Assay: protein stability index of a GFP-peptide fusion (GPS, HEK-293T) (PSI 1-6); higher = more stable
Details: c terminus: a fixed tail appended
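Further: lentivirally expressed fusions sorted by FACS into six bins by GFP to DsRed ratio, PSI derived from sequencing read proportions per bin multiplied by bin number.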

Protein stability index, by site and new letter:
C23: P 4.01, Q 3.91, R 4.18, Y 1.85, N 4, T 2.84, S 3.69, W 2.34
K24: C 1.98, F 1.92, P 2.83, G 2.95, N 2.48, W 2.36, Y 2.49, V 2.62, T 3.18, I 2.23, D 3.35, R 1.74, L 2.5, Q 2.64, S 2.88, E 3.19, A 3, H 2.76, M 2.62

Variants of: B2
Assay: as above
Details: c terminus: a fixed tail appended

Protein stability index of substitutions, site by site:
I7: H 1.6, Q 1.36, E 2.3, Y 1.86, M 3.88, F 2.87, K 1.74, G 2.4, C 1.84, V 2.81, P 2.1, S 2.81, L 2.9, N 1.93, R 1.79, A 2.02, T 1.66, W 3.71, D 2.27
F11: R 3.03, V 3.51, T 2.83, Q 2.21, E 1.89, W 2.53, L 3.24, Y 3.4, S 3.59, H 2.71, G 1.96, D 1.49, P 1.79, C 2.68, K 2.08, M 3.18, N 2.05
R15: F 2.57, A 1.81, E 4.29, N 3.46, L 2.95, I 2.32, H 5.96, D 2.25, C 3.16, G 3.31, S 2.76, T 1.69, M 2.66, Y 2.33, P 2.53, W 2.97
A17: S 2.61, Y 2.86, M 4.41, P 3.54, C 3.02, T 2.16, Q 2.7, N 3.14, K 2.1, G 1.74, R 3.34, I 2.91, H 3.05
T8: M 3.27, P 1.86, N 3.01, F 3.33, R 2.51, G 2.05, A 3.42, Q 2.78, D 3.49, I 1.8, V 2.13, C 2.73, S 4.33, H 3.34, E 2.79
W6: K 1.22, T 1.43, V 1.49, A 1.66, F 2.43, R 1.86, S 1.71, N 2.71, Y 3.11, C 2.1, M 3.3, E 2.27, G 1.67, P 2.13, Q 2.07, H 2.2, I 3.22, D 2.12
C12: R 1.81, W 3.99, A 2.57, H 3.13, P 1.97, D 1.59, Q 1.81, I 2.77, E 1.95, F 2.67, T 3.14, Y 3.81, N 1.6, G 2.61, S 2.78, V 2.69, L 3.4, K 2.81
S1: W 3.8, I 4.71, H 2.92, V 2.43, P 2.9, C 3.86, A 3.31, N 2.5, M 3.02, K 3.58, Q 2.31, T 3.01, Y 2.05, L 2.55, G 3.32, F 3.6, D 3.17, E 3.4
Y13: P 2.18, F 2.47, T 2.96, Q 1.57, A 3.53, W 3.59, G 3.62, L 1.87, M 2.87, K 1.86, E 1.03, H 3.23, V 3, S 2.2, D 1.8, R 1.8, C 2.83
D9: M 3.64, P 2.83, I 4, F 3.55, C 4.21, Y 2.56, G 3.51, R 3.41, A 2.74, S 3.04, H 4.47, L 2.65, Q 2.67, E 3.89, T 3.43
P19: D 1.69, E 3.59, C 2.7, M 4.18, N 2.77, A 3.17, F 4.12, K 3.4, L 1.54, G 2.04, I 3.63
H16: Y 2.27, G 2.72, D 2.33, P 3.62, W 1.82, K 1.7, R 5.03, S 3.5, A 2.55, I 1.75, T 2.32, Q 3.32, F 3.57, L 4.65
K5: N 3.19, F 2.91, I 3.27, Y 3.64, C 2.24, V 3.36, H 3.79, W 2.78, L 2.73, A 2.97, Q 2.99, T 2.46, G 3.71, E 1.81, R 3.05, D 3.42, M 3, P 1.26, S 3.33
I3: Q 2.1, K 1.84, A 2.42, N 1.6, D 2.83, T 1.7, L 2.36, H 1.98, R 1.78, Y 3.11, V 3.81, S 1.21, P 2.06, W 2.41, E 1.67, M 3.21, C 4.05, F 1.87
A2: Y 2.04, I 3.56, P 3.53, C 3.04, N 2.25, W 2.53, F 4.1, E 1.44, Q 2.49, H 3.1, L 2.45, G 2.87, V 2.4, K 2.72, R 2.52
D18: H 4.66, V 2.75, C 2.02, L 2.74, A 3.1, W 2.55, Y 2.95, F 1.9, R 2.77, N 3.12, G 2.24, T 2.81, E 3.65, M 3.77, Q 2.86, S 3.4, I 2.82
N10: R 2.2, E 2.62, L 3.56, M 2.89, F 1.81, H 2.3, D 1.58, W 2.06, V 1.74, K 2.34, C 2.08, G 1.42, I 2.79, T 2.05, Y 3.33, P 2.13, Q 2.11
Y4: H 2.58, C 2.04, N 2.71, I 2.52, T 1.52, F 2.59, W 2.97, L 2.95, S 2.68, D 2.24, A 1.47, E 2.99, P 2.27, Q 2.97
F14: A 2.32, S 2.13, C 3.92, Y 2.97, I 4.22, V 3.33, D 2.64, N 2.14, P 2.04, G 2.33, R 1.75, E 2.23, M 2.21, K 2.58, H 2.56, W 2.73
